From article PMC3951675 (Journal of molecular biology, 2013) come the findings set out here.

Series [1] deals with the molecule itself. Briefly: SEC.
Series [2] concerns the molecule itself. The series is described as follows: AUC.

B1: regulatory domain of tyrosine hydroxylase lacking the first 64 residues (RDTyrH_(65-159)) (domain or fragment, rat, UniProt P04177 65-159, looked up)
chain: PGNPLEAVVFEERDGNAVLNLLFSLRGTKPSSLSRAVKVFETFEAKIHHLETRPAQRPLAGSPHLEYFVRFEVPSGDLAALLSSVRRVSDDVRSA
As usually defined, the stoichiometry N is the number of molecules, sites or subunits per partner or assembly. On to B1, for which the “stoichiometry N” value in series [1] came out at 2.

B2: isolated regulatory domain of tyrosine hydroxylase (RDTyrH, residues 1-159) (domain or fragment, rat, UniProt P04177 1-159, looked up)
chain: MPTPSAPSPQPKGFRRAVSEQDAKQAEAVTSPRFIGRRQSLIEDARKEREAAAAAAAAAVASSEPGNPLEAVVFEERDGNAVLNLLFSLRGTKPSSLSRAVKVFETFEAKIHHLETRPAQRPLAGSPHLEYFVRFEVPSGDLAALLSSVRRVSDDVRSA
With B2, in series [2], the “stoichiometry N” value came to 2.
